Reference: patent US20180327500A1 (SYMPHOGEN A S, published 2018)

T1: LS5
T1 construct: human/mouse chimera on transfected HEK293 cells; also called AA 25-473
T1 MET ECD-SV5-GPI fusion: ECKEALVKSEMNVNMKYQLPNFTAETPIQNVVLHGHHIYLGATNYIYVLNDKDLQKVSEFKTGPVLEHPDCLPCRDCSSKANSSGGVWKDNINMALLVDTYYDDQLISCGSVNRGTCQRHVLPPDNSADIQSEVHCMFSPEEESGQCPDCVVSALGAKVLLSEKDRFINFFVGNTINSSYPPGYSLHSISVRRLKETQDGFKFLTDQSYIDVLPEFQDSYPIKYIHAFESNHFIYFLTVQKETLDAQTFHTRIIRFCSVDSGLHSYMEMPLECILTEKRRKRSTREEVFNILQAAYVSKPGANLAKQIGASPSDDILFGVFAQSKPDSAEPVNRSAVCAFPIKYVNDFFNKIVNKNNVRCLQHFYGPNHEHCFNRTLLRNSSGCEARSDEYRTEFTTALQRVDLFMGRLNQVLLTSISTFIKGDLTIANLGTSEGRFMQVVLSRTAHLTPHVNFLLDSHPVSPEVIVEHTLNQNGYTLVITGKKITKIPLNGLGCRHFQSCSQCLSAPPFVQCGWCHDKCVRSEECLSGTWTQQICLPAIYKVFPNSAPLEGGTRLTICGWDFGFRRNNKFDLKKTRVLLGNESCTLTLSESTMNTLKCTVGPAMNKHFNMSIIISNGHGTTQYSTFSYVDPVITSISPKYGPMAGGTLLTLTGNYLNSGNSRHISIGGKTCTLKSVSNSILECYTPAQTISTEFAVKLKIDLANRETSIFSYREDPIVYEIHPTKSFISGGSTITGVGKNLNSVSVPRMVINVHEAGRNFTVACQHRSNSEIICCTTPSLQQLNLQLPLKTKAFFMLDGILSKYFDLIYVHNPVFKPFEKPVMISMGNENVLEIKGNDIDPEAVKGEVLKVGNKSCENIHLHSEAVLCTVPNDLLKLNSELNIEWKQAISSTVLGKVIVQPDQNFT

T2: Mouse Blade 1-6
T2 construct: human/mouse chimera on transfected HEK293 cells; also called AA 25-479
T2 MET ECD-SV5-GPI fusion: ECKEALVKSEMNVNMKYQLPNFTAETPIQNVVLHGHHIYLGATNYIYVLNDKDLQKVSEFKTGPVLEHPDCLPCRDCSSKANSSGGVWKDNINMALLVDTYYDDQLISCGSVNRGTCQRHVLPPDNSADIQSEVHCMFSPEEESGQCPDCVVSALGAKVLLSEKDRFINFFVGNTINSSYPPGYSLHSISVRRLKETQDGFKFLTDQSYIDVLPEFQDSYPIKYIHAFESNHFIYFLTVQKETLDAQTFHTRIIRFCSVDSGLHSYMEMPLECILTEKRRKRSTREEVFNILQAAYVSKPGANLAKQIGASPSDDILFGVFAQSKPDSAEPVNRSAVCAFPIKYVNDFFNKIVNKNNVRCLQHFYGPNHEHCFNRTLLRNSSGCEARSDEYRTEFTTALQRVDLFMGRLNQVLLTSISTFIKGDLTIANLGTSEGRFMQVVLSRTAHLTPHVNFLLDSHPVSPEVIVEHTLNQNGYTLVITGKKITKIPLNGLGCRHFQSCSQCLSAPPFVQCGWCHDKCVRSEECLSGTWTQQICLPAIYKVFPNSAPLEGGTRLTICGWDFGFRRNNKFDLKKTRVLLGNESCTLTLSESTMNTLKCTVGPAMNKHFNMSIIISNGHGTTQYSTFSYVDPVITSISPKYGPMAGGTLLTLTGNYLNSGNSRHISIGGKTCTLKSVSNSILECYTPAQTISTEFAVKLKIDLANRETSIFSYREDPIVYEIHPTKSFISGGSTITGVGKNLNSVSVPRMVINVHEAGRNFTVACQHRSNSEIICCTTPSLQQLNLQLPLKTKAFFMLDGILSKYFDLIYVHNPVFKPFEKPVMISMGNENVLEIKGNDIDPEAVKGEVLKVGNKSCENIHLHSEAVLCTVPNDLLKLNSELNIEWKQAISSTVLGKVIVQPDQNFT

T3: Mouse Blade 1-2
T3 construct: human/mouse chimera on transfected HEK293 cells; also called AA 25-162
T3 MET ECD-SV5-GPI fusion: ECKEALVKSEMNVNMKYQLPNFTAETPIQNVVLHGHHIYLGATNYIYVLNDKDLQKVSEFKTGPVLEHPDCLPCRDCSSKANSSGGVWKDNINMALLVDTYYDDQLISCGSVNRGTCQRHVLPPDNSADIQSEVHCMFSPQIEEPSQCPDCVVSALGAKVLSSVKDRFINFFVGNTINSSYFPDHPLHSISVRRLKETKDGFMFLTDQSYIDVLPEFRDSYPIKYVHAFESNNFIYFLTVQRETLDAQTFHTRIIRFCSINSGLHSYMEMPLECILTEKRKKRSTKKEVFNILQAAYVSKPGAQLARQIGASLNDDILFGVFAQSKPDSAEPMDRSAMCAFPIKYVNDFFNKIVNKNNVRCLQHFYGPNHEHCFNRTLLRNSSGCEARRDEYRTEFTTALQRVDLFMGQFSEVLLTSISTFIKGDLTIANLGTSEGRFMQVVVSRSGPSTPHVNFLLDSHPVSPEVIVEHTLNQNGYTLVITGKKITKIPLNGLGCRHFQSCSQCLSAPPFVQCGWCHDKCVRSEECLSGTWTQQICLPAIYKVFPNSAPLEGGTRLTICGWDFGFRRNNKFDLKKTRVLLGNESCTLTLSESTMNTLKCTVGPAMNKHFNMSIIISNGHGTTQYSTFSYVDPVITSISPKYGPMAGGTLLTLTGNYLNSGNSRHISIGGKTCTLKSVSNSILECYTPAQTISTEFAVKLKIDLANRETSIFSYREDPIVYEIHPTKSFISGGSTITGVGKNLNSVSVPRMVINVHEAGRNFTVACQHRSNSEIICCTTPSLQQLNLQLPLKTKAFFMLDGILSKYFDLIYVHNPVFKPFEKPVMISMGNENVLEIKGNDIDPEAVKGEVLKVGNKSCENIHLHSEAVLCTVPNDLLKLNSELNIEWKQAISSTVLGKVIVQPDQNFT

B1: humanized antibody 9006 (antibody, human IgG1, kappa, V domains shown)
VH: QVQLVQSGSELKKPGASVKVSCKASGYTFTNFRMNWVKQAPGQGLKWMGWINTYTGEPTYVDDLKGRFVFSLDTSVSTAYLQISSLKAEDTAVYYCARKGIARAMDYWGQGTTVTVSS
VL: DIVMTQSPDSLAVSLGERATINCKSSQSLLDSGNQKNYLAWYQQKPGQPPKLLIFGASTRESGVPDRFSGSGSGTDFTLTISSLQAEDVAVYYCQNDHSYPYTFGQGTKLEIKR
notes: also called Hu9006; hu9006
B2: humanized antibody 9338 (antibody, human IgG1, kappa, V domains shown)
VH: QVQLVQSGAEVKKPGSSVKVSCKASGYTFTSYWMHWVRQAPGQGLEWMGYINPSSGHIENNQKFKDRVTITADKSTSTAYMELSSLRSEDTAVYYCARGRFAYWGQGTLVTVSS
VL: EIVLTQSPATLSLSPGERATLSCSASSSVSSGYLYWYQQKPGQAPRLLIYSTSNLASGIPARFSGSGSGTDFTLTISSLEPEDFAVYYCHQWSSYPFTFGSGTKLEIKR
notes: also called Hu9338; hu9338

Key:
LS5 = target: T1, LS5; test: flow cytometry on transfected HEK293 cells;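 note: antibodies applied at 50 µg/ml, binding called specific when fluorescence exceeds the mean signal on a negative control chicken or mouse MET construct plus four SD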
Experimental: (§1) Cut-off values defined as the average fluorescence signal of all antibodies tested at 50 μg/ml to the negative control chicken or mouse MET construct+four standard deviations were employed to discriminate background binding from specific binding for the domain exchange or blade exchange constructs.

Mouse Blade 1-6 = target: T2, Mouse Blade 1-6; test: flow cytometry on transfected HEK293 cells;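 note: antibodies applied at 50 µg/ml, binding called specific when fluorescence exceeds the mean signal on a negative control chicken or mouse MET construct plus four SD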
Experimental: as §1

[1] = target: T4, His tagged human MET ECD (Sinobiological) (human, UniProt P08581 25-932); test: BLI (Octet QK384); antibody captured on anti-human Fc sensors, monovalent MET ECD in solution, 1:1 Langmuir fit
T4 construct: Bought monovalent antigen; also called human MET antigen; not shown: His tag

[2] = target: T5, His tagged cynomolgus MET ECD (Sinobiological) (cynomolgus); test: SPR (Bio-Rad XPR-36); antibody captured on anti-human IgG Fc surface, MET ECD 25 to 1.56 nM, 1:1 Langmuir fit
T5 construct: extracellular domain; Bought monovalent antigen
Experimental: His tagged human or cynomolgus MET ECD antigens were purchased from Sinobiological, China. […] Measurements were conducted with a plate rotation speed of 1000 rpm and sensors were regenerated and reused by brief 5 second alternations between exposure to 10 mM Glycine:HCl buffer (pH 1.5) or PBS buffer containing 1% BSA and 0.001% Tween 20 three times. For the Surface Plasmon Resonance experiments conducted on the Bio-Rad XPR-36 instrument, anti-MET antibodies were adjusted to a concentration of 0.25-0.5 μg/ml and captured on anti-human IgG Fc surfaces generated by immobilizing a monoclonal anti-human Fc antibody (Biacore, Denmark). […] The recorded binding responses were fitted to a simple Langmuir 1:1 binding model for calculation of the on-rate (kon or ka), off-rate (koff or kd) and affinity (KD) constants using double referencing.

Mouse Blade 1-2 = target: T3, Mouse Blade 1-2; test: flow cytometry on transfected HEK293 cells;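 note: antibodies applied at 50 µg/ml, binding called specific when fluorescence exceeds the mean signal on a negative control chicken or mouse MET construct plus four SD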
Experimental: as §1

| Binder | binding result (LS5) | binding result (Mouse Blade 1-6) | Kd [1] [nM] | koff [1] [s⁻¹] | kon [1] [M⁻¹ s⁻¹] | Kd [2] [nM] | koff [2] [s⁻¹] | kon [2] [M⁻¹ s⁻¹] | binding result (Mouse Blade 1-2) |
| --- | --- | --- | --- | --- | --- | --- | --- | --- | --- |
| B1 | no binding (tested: 50 µg/ml) | no binding (tested: 50 µg/ml) | 1.2 | 7.6e-05 | 62000 | 0.086 | 1.6e-05 | 180000 | – |
| B2 | no binding (tested: 50 µg/ml) | no binding (tested: 50 µg/ml) | – | – | – | 0.074 | 5.4e-05 | 740000 | no binding (tested: 50 µg/ml) |
